According to article PMC9482650, “Quantitative fragmentomics allow affinity mapping of interactomes” (Nature Communications, 2022):

T1: MPP6, Q9NZW5
T1 sequence (Q9NZW5 125-219, limits assumed, looked up): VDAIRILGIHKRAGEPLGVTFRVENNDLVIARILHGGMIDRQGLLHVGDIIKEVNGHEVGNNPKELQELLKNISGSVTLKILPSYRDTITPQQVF

T2: LIN7A, O14910
T2 sequence (O14910 103-200, limits assumed, looked up): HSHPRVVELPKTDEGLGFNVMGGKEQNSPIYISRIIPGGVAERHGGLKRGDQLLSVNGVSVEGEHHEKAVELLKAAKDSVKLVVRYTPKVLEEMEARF

T3: SHANK1, Q9Y566
T3 sequence (Q9Y566 658-767, limits assumed, looked up): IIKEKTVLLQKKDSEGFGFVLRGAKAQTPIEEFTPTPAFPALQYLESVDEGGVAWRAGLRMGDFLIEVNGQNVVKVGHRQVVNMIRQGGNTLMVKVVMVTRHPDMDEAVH

T4: SIPA1L2, Q9P2F8
T4 sequence (Q9P2F8 945-1036, limits assumed, looked up): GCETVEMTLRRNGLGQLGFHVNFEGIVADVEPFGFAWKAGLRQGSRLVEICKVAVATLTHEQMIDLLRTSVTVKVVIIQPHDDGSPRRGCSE

T5: APBA1_1, Q02410
T5 sequence (Q02410 651-752, limits assumed, looked up): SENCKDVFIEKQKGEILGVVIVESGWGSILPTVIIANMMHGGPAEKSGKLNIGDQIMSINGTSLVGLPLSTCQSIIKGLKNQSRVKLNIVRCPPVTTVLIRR

T6: GRIP1_5, Q9Y3R0
T6 sequence (Q9Y3R0 568-668, limits assumed, looked up): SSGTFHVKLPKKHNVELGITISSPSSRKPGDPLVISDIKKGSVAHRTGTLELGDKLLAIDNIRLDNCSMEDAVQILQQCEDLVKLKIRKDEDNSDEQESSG

T7: DLG3_3, Q92796
T7 sequence (Q92796 374-475, limits assumed, looked up): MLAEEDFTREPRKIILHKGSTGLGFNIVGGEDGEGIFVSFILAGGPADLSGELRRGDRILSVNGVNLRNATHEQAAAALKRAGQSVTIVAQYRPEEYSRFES

T8: MPDZ_5, O75970
T8 sequence (O75970 695-796, limits assumed, looked up): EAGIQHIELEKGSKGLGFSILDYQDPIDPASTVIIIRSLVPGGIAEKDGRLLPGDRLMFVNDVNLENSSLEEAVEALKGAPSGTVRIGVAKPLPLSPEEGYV

T9: RADIL, Q96JH8
T9 sequence (Q96JH8 971-1071, limits assumed, looked up): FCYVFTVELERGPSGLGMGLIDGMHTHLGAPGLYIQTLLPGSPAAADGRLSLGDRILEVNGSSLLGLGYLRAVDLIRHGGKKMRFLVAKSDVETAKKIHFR

T10: DLG3_2, Q92796
T10 sequence (Q92796 221-321, limits assumed, looked up): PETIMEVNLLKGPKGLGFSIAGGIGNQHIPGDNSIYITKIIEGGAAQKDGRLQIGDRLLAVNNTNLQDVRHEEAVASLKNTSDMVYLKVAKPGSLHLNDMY


Key:
Assay in all cases: holdup assay
Design in all cases: key: below the threshold = too weak to quantify, mostly under pKd 3.1 to 4
Details in all cases: plain residues with an end cap or a label only (N-terminal biotin on a linker: ado-ado)
TJP1_2, Q07157 = biological target: TJP1_2, Q07157
MAGI2_2, Q86UL8 = biological target: MAGI2_2, Q86UL8
MPP6, Q9NZW5 = biological target: T1, MPP6, Q9NZW5
LIN7A, O14910 = biological target: T2, LIN7A, O14910
GORASP2, Q9H8Y8 = biological target: GORASP2, Q9H8Y8
LDB3, O75112 = biological target: LDB3, O75112
DLG4_3, P78352 = biological target: DLG4_3, P78352
PDLIM1, O00151 = biological target: PDLIM1, O00151
SHANK1, Q9Y566 = biological target: T3, SHANK1, Q9Y566
SIPA1L2, Q9P2F8 = biological target: T4, SIPA1L2, Q9P2F8
SCRIB_3, Q14160 = biological target: SCRIB_3, Q14160
FRMPD4, Q14CM0 = biological target: FRMPD4, Q14CM0
SCRIB_2, Q14160 = biological target: SCRIB_2, Q14160
MAGI3_2, Q5TCQ9 = biological target: MAGI3_2, Q5TCQ9
MAGI2_3, Q86UL8 = biological target: MAGI2_3, Q86UL8
APBA1_1, Q02410 = biological target: T5, APBA1_1, Q02410
TJP2_1, Q9UDY2 = biological target: TJP2_1, Q9UDY2
IL16_1, Q14005 = biological target: IL16_1, Q14005
GRIP1_5, Q9Y3R0 = biological target: T6, GRIP1_5, Q9Y3R0
DLG3_3, Q92796 = biological target: T7, DLG3_3, Q92796
MPDZ_5, O75970 = biological target: T8, MPDZ_5, O75970
DLG5_1, Q8TDM6 = biological target: DLG5_1, Q8TDM6
MAGI1_2, Q96QZ7 = biological target: MAGI1_2, Q96QZ7
RADIL, Q96JH8 = biological target: T9, RADIL, Q96JH8
DLG2_2, Q15700 = biological target: DLG2_2, Q15700
GRASP, Q7Z6J2 = biological target: GRASP, Q7Z6J2
DLG3_2, Q92796 = biological target: T10, DLG3_2, Q92796
ARHGEF12, Q9NZN5-2 = biological target: ARHGEF12, Q9NZN5-2
Sequence of ARHGEF12, Q9NZN5-2 (Q9NZN5 other isoform, or with tags, fused parts or gaps): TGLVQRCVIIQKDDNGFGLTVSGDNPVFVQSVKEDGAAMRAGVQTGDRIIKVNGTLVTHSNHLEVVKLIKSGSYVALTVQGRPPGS

Sequence of FRMPD4, Q14CM0 (Q14CM0 67-160): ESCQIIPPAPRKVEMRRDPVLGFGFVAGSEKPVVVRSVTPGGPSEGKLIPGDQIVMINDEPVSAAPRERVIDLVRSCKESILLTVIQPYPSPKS
Sequence of MAGI2_2, Q86UL8 (Q86UL8 410-522): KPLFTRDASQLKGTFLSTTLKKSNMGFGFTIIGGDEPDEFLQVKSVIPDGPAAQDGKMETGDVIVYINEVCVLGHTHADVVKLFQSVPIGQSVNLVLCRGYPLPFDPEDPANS
Sequence of IL16_1, Q14005 (Q14005 210-306): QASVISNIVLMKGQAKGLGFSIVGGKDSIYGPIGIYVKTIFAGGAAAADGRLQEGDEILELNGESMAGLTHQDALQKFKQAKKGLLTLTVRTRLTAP
Sequence of PDLIM1, O00151 (O00151 1-87): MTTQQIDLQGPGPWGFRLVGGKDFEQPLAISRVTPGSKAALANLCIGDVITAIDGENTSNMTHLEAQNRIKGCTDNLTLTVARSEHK
Sequence of TJP2_1, Q9UDY2 (Q9UDY2 24-128): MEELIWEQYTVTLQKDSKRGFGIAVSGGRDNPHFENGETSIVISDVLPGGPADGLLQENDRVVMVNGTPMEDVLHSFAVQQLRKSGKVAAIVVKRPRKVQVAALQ
Sequence of MAGI1_2, Q96QZ7 (Q96QZ7 456-580): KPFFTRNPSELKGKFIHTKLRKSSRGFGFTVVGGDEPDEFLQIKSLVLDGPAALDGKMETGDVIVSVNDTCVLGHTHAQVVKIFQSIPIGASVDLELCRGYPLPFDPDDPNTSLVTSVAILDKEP
Sequence of LDB3, O75112 (O75112 1-94): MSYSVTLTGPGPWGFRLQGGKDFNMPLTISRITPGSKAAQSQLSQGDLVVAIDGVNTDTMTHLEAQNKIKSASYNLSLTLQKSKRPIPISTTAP
Sequence of SCRIB_2, Q14160 (Q14160 857-960): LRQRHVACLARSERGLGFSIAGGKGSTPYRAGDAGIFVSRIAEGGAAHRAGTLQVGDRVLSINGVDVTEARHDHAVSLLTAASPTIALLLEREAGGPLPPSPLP
Sequence of GRASP, Q7Z6J2 (Q7Z6J2 96-193): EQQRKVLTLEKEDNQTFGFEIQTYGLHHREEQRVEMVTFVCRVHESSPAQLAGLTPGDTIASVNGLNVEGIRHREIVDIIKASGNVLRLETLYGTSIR
Sequence of DLG4_3, P78352 (P78352 306-403): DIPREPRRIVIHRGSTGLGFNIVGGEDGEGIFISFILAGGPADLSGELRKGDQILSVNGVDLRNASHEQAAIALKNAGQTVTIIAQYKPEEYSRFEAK
Sequence of MAGI3_2, Q5TCQ9 (Q5TCQ9 398-503): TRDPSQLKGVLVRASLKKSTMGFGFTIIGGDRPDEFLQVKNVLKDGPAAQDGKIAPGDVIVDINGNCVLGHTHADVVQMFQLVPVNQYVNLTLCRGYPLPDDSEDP
Sequence of SCRIB_3, Q14160 (Q14160 999-1103): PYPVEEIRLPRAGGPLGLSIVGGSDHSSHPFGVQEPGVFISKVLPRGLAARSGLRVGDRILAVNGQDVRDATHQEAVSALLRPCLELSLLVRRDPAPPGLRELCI
Sequence of DLG2_2, Q15700 (Q15700 189-283): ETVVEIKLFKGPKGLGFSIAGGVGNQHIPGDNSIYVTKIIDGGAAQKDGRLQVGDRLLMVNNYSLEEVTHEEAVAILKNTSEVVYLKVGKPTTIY
Sequence of DLG5_1, Q8TDM6 (Q8TDM6 617-713): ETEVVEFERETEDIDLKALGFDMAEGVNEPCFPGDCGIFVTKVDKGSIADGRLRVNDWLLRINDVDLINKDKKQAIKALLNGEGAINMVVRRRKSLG
Sequence of MAGI2_3, Q86UL8 (Q86UL8 600-682): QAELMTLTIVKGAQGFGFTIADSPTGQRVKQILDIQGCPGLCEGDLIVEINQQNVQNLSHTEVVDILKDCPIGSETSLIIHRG
Sequence of TJP1_2, Q07157 (Q07157 181-274): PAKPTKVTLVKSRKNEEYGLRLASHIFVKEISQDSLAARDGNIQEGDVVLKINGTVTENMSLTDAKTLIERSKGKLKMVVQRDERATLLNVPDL

Binder	pKd (TJP1_2, Q07157)	pKd (MAGI2_2, Q86UL8)	pKd (MPP6, Q9NZW5)	pKd (LIN7A, O14910)	pKd (GORASP2, Q9H8Y8)	pKd (LDB3, O75112)	pKd (DLG4_3, P78352)	pKd (PDLIM1, O00151)	pKd (SHANK1, Q9Y566)	pKd (SIPA1L2, Q9P2F8)	pKd (SCRIB_3, Q14160)	pKd (FRMPD4, Q14CM0)	pKd (SCRIB_2, Q14160)	pKd (MAGI3_2, Q5TCQ9)	pKd (MAGI2_3, Q86UL8)	pKd (APBA1_1, Q02410)	pKd (TJP2_1, Q9UDY2)	pKd (IL16_1, Q14005)	pKd (GRIP1_5, Q9Y3R0)	pKd (DLG3_3, Q92796)	also measured
SRPHTNETSL [MCC, P23508]	below the threshold	3.64	below the threshold	below the threshold	below the threshold	below the threshold	3.95	below the threshold	4.17	below the threshold	5.13	4.49	4.28	4.09	below the threshold	below the threshold	below the threshold	below the threshold	below the threshold	3.95	pKd (MPDZ_5, O75970): below the threshold; pKd (DLG5_1, Q8TDM6): below the threshold; pKd (MAGI1_2, Q96QZ7): 3.63; pKd (RADIL, Q96JH8): below the threshold; pKd (DLG2_2, Q15700): below the threshold; pKd (GRASP, Q7Z6J2): 3.96; pKd (DLG3_2, Q92796): 3.72; pKd (ARHGEF12, Q9NZN5-2): 4.68
GSQSQVETEA [FKBP4, Q02790]	below the threshold	below the threshold	below the threshold	below the threshold	below the threshold	below the threshold	below the threshold	below the threshold	3.64	below the threshold	4.04	below the threshold	below the threshold	below the threshold	below the threshold	below the threshold	below the threshold	below the threshold	below the threshold	below the threshold	pKd (MPDZ_5, O75970): below the threshold; pKd (DLG5_1, Q8TDM6): below the threshold; pKd (MAGI1_2, Q96QZ7): below the threshold; pKd (RADIL, Q96JH8): below the threshold; pKd (DLG2_2, Q15700): below the threshold; pKd (GRASP, Q7Z6J2): 3.59; pKd (DLG3_2, Q92796): 4.2; pKd (ARHGEF12, Q9NZN5-2): below the threshold
ATKDKKITTV [EXOC4, Q96A65]	3.73	5.52	below the threshold	3.52	4.64	below the threshold	4.5	3.49	below the threshold	3.52	3.84	3.55	3.49	5.31	3.57	below the threshold	3.87	below the threshold	below the threshold	4.56	pKd (MPDZ_5, O75970): below the threshold; pKd (DLG5_1, Q8TDM6): 3.59; pKd (MAGI1_2, Q96QZ7): 4.91; pKd (RADIL, Q96JH8): 4.14; pKd (DLG2_2, Q15700): 5.75; pKd (GRASP, Q7Z6J2): 3.95; pKd (DLG3_2, Q92796): 5.28; pKd (ARHGEF12, Q9NZN5-2): 4.87
FHSIKQSTAV [CRHR1, P34998]	below the threshold	5.03	3.7	below the threshold	below the threshold	below the threshold	4.43	below the threshold	4.55	below the threshold	4.43	below the threshold	4.18	5.01	3.61	below the threshold	3.6	below the threshold	below the threshold	4.4	pKd (MPDZ_5, O75970): below the threshold; pKd (DLG5_1, Q8TDM6): below the threshold; pKd (MAGI1_2, Q96QZ7): 5.05; pKd (RADIL, Q96JH8): below the threshold; pKd (DLG2_2, Q15700): 4.66; pKd (GRASP, Q7Z6J2): 4.72; pKd (DLG3_2, Q92796): 4.61; pKd (ARHGEF12, Q9NZN5-2): 4.63
